Assay results taken from patent US12072338B2, “Pharmaceutical peptides for the treatment of inflammatory diseases” (PROTAGONISTS LTD., priority 2007, dated 2024).

How the values were obtained:
Mig = biological target: T1, Mig (Homo sapiens, UniProt Q07325); test: Micro-array analysis of chemokine binding peptides: Mig
T1 construct: purchased 300-26
T1 sequence (Q07325 23-125): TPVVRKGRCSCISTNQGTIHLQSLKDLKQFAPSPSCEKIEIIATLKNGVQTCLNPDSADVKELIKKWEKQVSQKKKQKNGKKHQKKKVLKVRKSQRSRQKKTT
Outline: (§1)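 Chemokines printed at 25 and 50 μg/ml on protein microarray slides, blocked, then probed 1 h at RT with peptide-displaying recombinant phage (10^7 pfu/μl). Bound phage detected with mouse anti-M13 then Cy3 anti-mouse IgG. Cy3 fluorescence scanned, reported as relative fluorescence versus chemokine concentration.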

Eotaxin = biological target: T2, Eotaxin (Homo sapiens, UniProt P51671); test: Micro-array analysis of chemokine binding peptides: Eotaxin
T2 construct: purchased 300-21
Outline: as §1

Lymphotactin = biological target: T3, Lymphotactin (Homo sapiens, UniProt P47992); test: Micro-array analysis of chemokine binding peptides: Lymphotactin
T3 construct: purchased 300-20
T3 sequence (P47992 22-114): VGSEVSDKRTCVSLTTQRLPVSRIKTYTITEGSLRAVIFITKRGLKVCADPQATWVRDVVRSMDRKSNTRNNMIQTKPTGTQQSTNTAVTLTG
Outline: as §1

MDC 69 = biological target: T4, MDC 69 (Homo sapiens, UniProt O00626); test: Micro-array analysis of chemokine binding peptides: MDC 69
T4 construct: MDC(69aa), (CCL22 cat.no.300-36A); purchased 300-36A
T4 sequence (O00626 25-93): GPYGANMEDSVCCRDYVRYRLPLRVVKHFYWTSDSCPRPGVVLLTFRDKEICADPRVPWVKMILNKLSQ
Protocol: (§2) (1) Printing: Chemokine (CK) solution (in water) was serially diluted with Print Reagent (GenTel BioSurfaces USA) to final concentrations of 50 μg and 25 μg/ml. BSA/BSA-Biotin control solutions (in water) were diluted with Print Reagent to 100 μg/ml. Amplified stock of M13 phage control (M13KEgIII Cloning Vector, New England Biolabs, Cat.No.E8101S) was stored in Tris Buffered Saline (TBS; pH7.5, 4° C.) and diluted with Print Reagent to the working titre (10^8 pfu/μl). An automated spotting robot (16 pin print tool, 0.4 mm head; BioRobotics, UK) was used to print the CK/BSA control/M13 control, 5 repeats per sample (CK 25 μg/ml and 50 μg/ml; BSA 100 μg/ml; M13 20 μl), on PATH Protein Microarray Slides (GenTel, Prod.No. 2-1005/-1025) at […], and 50-70% relative humidity. Printed micro-array slides were stored at Room Temperature (RT) or 4° C. for at least 24 h before use.
(§3) (2) Blocking: Block Buffer (500 μl/partition; PATHblock, GenTel, Prod.No. 2-1014) was applied to the slide for 1 hour at room temp (RT). After removal of Block Buffer, the slide was air dried for 25 minutes;
(§4) (3) Phage Presented Peptide Binding: Amplified recombinant phage stock was stored in TBS and diluted with Wash Buffer to working titer (10^7 pfu/μl). Recombinant phage suspension (300 μl) was applied per partition and incubated at RT for 1 hour with gentle agitation.
(§5) (4) First Washing: The slides were washed twice with Wash Buffer 300 μl/partition).
(5) Primary Antibody (Ab) Labeling: The slides were incubated with the Primary Ab (1 mg/ml diluted ×2500 (Wash Reagent), 300 μl; Mouse Anti-M13 monoclonal Ab; Amersham Biosciences, UK; Product Code 27-9420-01) for 45 minutes at RT. […]
(§6) (11) Analysis: Quantitative analysis of micro-array was performed by the SpotReader program of Niles Scientific (USA) and presented as Relative Fluorescence (RF) as a function of CK concentration. Micro-array readout (Cy3 fluorescence) was quantified to determine the relative binding affinities of a CBP for the CKs and by inference, the specificity of the CBP for binding to a CK.

SDF1 = test: Micro-array analysis of chemokine binding peptides: SDF1 (isoform not given)
Protocol: as §2, §3, §4, §5
(5) Primary Antibody (Ab) Labeling: The slides were incubated with the Primary Ab (1 mg/ml diluted ×2500 (Wash Reagent), 300 μl; Mouse Anti-M13 monoclonal Ab; Amersham Biosciences, UK; Product Code 27-9420-01) for 45 minutes at RT.
(6) Second Washing: The slides were washed twice with Wash Buffer (300 μl/partition).
(7) Secondary Ab Labeling: The slides were incubated with Secondary Ab (1.5 mg/ml diluted ×5000 (Wash Reagent), 300 μl; Cy3-conjugated AffiniPure Goat Anti-Mouse IgG; Jackson ImmunoReserch Labs, USA; Product Code 115-165-062).
(8) Third Washing: The slides were washed twice with Wash Buffer (300 μl/partition).
(9) Rinse: the slides were rinsed twice with Rinse Buffer (PATHrinse, GenTel, Prod.No. 2-1018) then dried well.
(10) Scanning: The peptide-bound, labeled slide was scanned (Laser Intensity 80%, Gain 80%, Resolution 10 μm) with a ScanArray Life Scanner (Packard BioChip Technologies, USA).
as §6

[1] = tested on: Adjuvant-Induced Arthritis (AIA) rats; test: Adjuvant Induced Arthritis (AIA) rat model, Clinical Score; assay type: in vivo; conditions: for most efficacious of the three doses: 2.5 μg, 25 μg and 250 μg IP on days 7-18; for day of maximal anti-inflammatory effect / maximal anti-inflammatory effect: 25 μg IP on days 7-18
Protocol: Peptides were tested in a rat model of AIA for their anti-inflammatory effects.
Disease Induction: AIA was induced in female Lewis rats aged 7-8 weeks by injection of heat-killed Mycobacerioum tuberculosis (Mt strain H37Ra, Difco Laboratories, USA) dispersed in incomplete Freund's adjuvant to a final concentration of 10 mg/ml (100 μl) at the base of the tail on day 0.
Measurement: Clinical Score (CS, 0-4) for each limb based on (a) joint inflammation, (b) redness, (c) deformity.
Efficacy Protocol 1 (5 rats per group). Peptide/control compound was injected intra-peritoneally (IP, 200 μl) on days 7-11 and 14-18.
Rats were sacrificed (CO2 inhalation) on day 43.
Efficacy Protocol 2 (8 rats per group). Group 1: peptide/PBS was injected intra-peritoneally (IP, 200 μl) on days 7-18; Group 2: PBS was injected IP on days 7-18; Group 3: Dexamethasone (Dexa) was injected IP on days 11 (Clinical Score (CS)1) and 13. Rats were sacrificed on day 43.
Combination Efficacy Protocol 1 (8 rats per group). Group 1: peptide injected IP on days 7-18; Group 2: PBS injected IP on days 7-18; Group 3: Dexa injected IP on day 11 (CS 1) and day 13; Group 4: Dexa injected IP on days 11 and 13 then peptide injected on days 14-22; Group 5: Dexa injected IP on days 11 and 13 then PBS injected on days 14-22.
(§7) Combination Efficacy Protocol 2 (8 rats per group). Group 1: peptide injected IP on days 7-18; Group 2: PBS injected IP on days 7-18; Group 3: Dexa injected IP on day 11 (CS 1) and day 13 then PBS on days 14-22; Group 4: PBS injected IP on days 7-10,12,14; Dexa injected on days 11, 13. Peptide injected on days 15-19.
as §7, with “Protocol 3” for “Protocol 2”, “4: peptide” for “4: PBS”
Control Reagents for Adjuvant Induced Arthritis: Anti-Inflammatory Control: Dexamethasone Sodium Phosphate (Dexacort Forte, Teva) was dissolved in Phosphate Buffer Saline (PBS, GIBCO) to a final concentration of 1 mg/ml and injected in 200 μl (200 μg).
Negative Control: Phosphate Buffer Saline (PBS).

[2] = limit = start of the upper 75% of that peptide's response range

SDF1, sequence (P48061 22-89 limits assumed): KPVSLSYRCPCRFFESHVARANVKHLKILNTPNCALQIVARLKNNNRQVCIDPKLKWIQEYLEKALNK

Row | binding to Mig with relatively high affinity (Relative Fluorescence Units) (Mig; [2]) | binding to Eotaxin with relatively high affinity (Relative Fluorescence Units) (Eotaxin; [2]) | binding to Lymphotactin, stated in words (Lymphotactin) | binding to MDC 69, stated in words (MDC 69) | binding to Mig, stated in words (Mig) | binding to Eotaxin, stated in words (Eotaxin) | binding to SDF1 (isoform not given), stated in words (SDF1) | Sequence | most efficacious of the three doses [1] [µg] | day of maximal anti-inflammatory effect [1] [days] | maximal anti-inflammatory effect [1] [%]
1 | > 15,000 RFU | > 15,000 RFU | bound | bound | – | – | – | DYDYGAPC [Ph-p30] | – | – | –
2 | – | – | bound | bound | bound | bound | bound specifically and differentially | WVFGAAMCK [Ph-p8.8] | 25 | 18 | 20
3 | – | – | – | – | – | – | bound specifically and differentially | WVFGNAMCK [P8] | 25 | ~17 | 17
